# Patent US20060257938A1, “Method of screening for drugs that block ligand binding to a lipid binding protein” (priority 2005, published 2006)
# Assays:
# Format in all cases: binding
# Settings in all cases: response relative to ADIFAB2
# [1] = Probe fluorescence ratio response to arachidonic acid relative to ADIFAB2
# Outline: (§1)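 Each fatty acid's response was expressed relative to ADIFAB2, the rI-FABP-L72A probe, as ΔR/ΔRreference. ΔR is the change in the background-corrected two-wavelength intensity ratio R=Fλ1/Fλ2 from its analyte-free baseline R0. Emission was read near about 420-480 nm for unbound and about 495-580 nm for FFA-bound probe.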
# [2] = Probe fluorescence ratio response to oleic acid relative to ADIFAB2
# Outline: as §1
# [3] = Probe fluorescence ratio response to palmitic acid relative to ADIFAB2
# Outline: as §1
# [4] = Probe fluorescence ratio response to linolenic acid relative to ADIFAB2
# Outline: as §1
# [5] = Probe fluorescence ratio response to linoleic acid relative to ADIFAB2
# Outline: as §1
Molecule,DR/DR AA ([1]; Arachidonic acid),DR/DR OA [2],DR/DR PA [3],DR/DR LNA [4],DR/DR LA [5],DR/DR AA ([1]; arachidonic acid)
"38G1, 72A (protein, listed as Rattus norvegicus, PEPTIDE (1)...(131) wild-type rat intestinal fatty acid binding protein) AFDGTWKVDRNENYEKFMEKMGINVVKRKLGAHDNLKGTITQEGNKFTVKESSNFRNIDVVFELGVDFAYSAADGTELTGTWTMEGNKLVGKFKRVDNGKELIAVREISGNELIQTYTYEGVEAKRIFKKE",1.03,1.03,0.56,1.07,1.10,–
"38I3, 72A (protein, listed as Rattus norvegicus, PEPTIDE (1)...(131) wild-type rat intestinal fatty acid binding protein) AFDGTWKVDRNENYEKFMEKMGINVVKRKLGAHDNLKITITQEGNKFTVKESSNFRNIDVVFELGVDFAYSAADGTELTGTWTMEGNKLVGKFKRVDNGKELIAVREISGNELIQTYTYEGVEAKRIFKKE",1.18,1.21,1.12,1.21,1.22,–
"38Y1, 72A (protein, listed as Rattus norvegicus, PEPTIDE (1)...(131) wild-type rat intestinal fatty acid binding protein) AFDGTWKVDRNENYEKFMEKMGINVVKRKLGAHDNLKYTITQEGNKFTVKESSNFRNIDVVFELGVDFAYSAADGTELTGTWTMEGNKLVGKFKRVDNGKELIAVREISGNELIQTYTYEGVEAKRIFKKE",2.08,1.72,1.52,1.88,1.82,–
"38H1, 72A (protein, listed as Rattus norvegicus, PEPTIDE (1)...(131) wild-type rat intestinal fatty acid binding protein) AFDGTWKVDRNENYEKFMEKMGINVVKRKLGAHDNLKHTITQEGNKFTVKESSNFRNIDVVFELGVDFAYSAADGTELTGTWTMEGNKLVGKFKRVDNGKELIAVREISGNELIQTYTYEGVEAKRIFKKE",1.24,1.16,0.74,1.19,1.25,–
"38W1, 72A (protein, listed as Rattus norvegicus, PEPTIDE (1)...(131) wild-type rat intestinal fatty acid binding protein) AFDGTWKVDRNENYEKFMEKMGINVVKRKLGAHDNLKWTITQEGNKFTVKESSNFRNIDVVFELGVDFAYSAADGTELTGTWTMEGNKLVGKFKRVDNGKELIAVREISGNELIQTYTYEGVEAKRIFKKE",1.35,1.58,1.55,1.34,2.41,–
"38T3, 72A (protein, listed as Rattus norvegicus, PEPTIDE (1)...(131) wild-type rat intestinal fatty acid binding protein) AFDGTWKVDRNENYEKFMEKMGINVVKRKLGAHDNLKTTITQEGNKFTVKESSNFRNIDVVFELGVDFAYSAADGTELTGTWTMEGNKLVGKFKRVDNGKELIAVREISGNELIQTYTYEGVEAKRIFKKE",1.60,1.55,1.02,1.64,1.58,–
"40V1, L72A (protein, listed as Rattus norvegicus, PEPTIDE (1)...(131) wild-type rat intestinal fatty acid binding protein) AFDGTWKVDRNENYEKFMEKMGINVVKRKLGAHDNLKLTVTQEGNKFTVKESSNFRNIDVVFELGVDFAYSAADGTELTGTWTMEGNKLVGKFKRVDNGKELIAVREISGNELIQTYTYEGVEAKRIFKKE",1.20,1.21,0.91,1.28,1.24,–
"40F2, L72A (protein, listed as Rattus norvegicus, PEPTIDE (1)...(131) wild-type rat intestinal fatty acid binding protein) AFDGTWKVDRNENYEKFMEKMGINVVKRKLGAHDNLKLTFTQEGNKFTVKESSNFRNIDVVFELGVDFAYSAADGTELTGTWTMEGNKLVGKFKRVDNGKELIAVREISGNELIQTYTYEGVEAKRIFKKE",0.89,0.90,0.80,0.99,0.90,–
"38N1, 72A (protein, listed as Rattus norvegicus, PEPTIDE (1)...(131) wild-type rat intestinal fatty acid binding protein) AFDGTWKVDRNENYEKFMEKMGINVVKRKLGAHDNLKNTITQEGNKFTVKESSNFRNIDVVFELGVDFAYSAADGTELTGTWTMEGNKLVGKFKRVDNGKELIAVREISGNELIQTYTYEGVEAKRIFKKE",1.08,0.97,0.65,1.14,1.12,–
"38S1, 72A (protein, listed as Rattus norvegicus, PEPTIDE (1)...(131) wild-type rat intestinal fatty acid binding protein) AFDGTWKVDRNENYEKFMEKMGINVVKRKLGAHDNLKSTITQEGNKFTVKESSNFRNIDVVFELGVDFAYSAADGTELTGTWTMEGNKLVGKFKRVDNGKELIAVREISGNELIQTYTYEGVEAKRIFKKE",1.28,1.28,0.71,1.37,1.37,–
"102Q, 72A (protein, listed as Rattus norvegicus, PEPTIDE (1)...(131) wild-type rat intestinal fatty acid binding protein) AFDGTWKVDRNENYEKFMEKMGINVVKRKLGAHDNLKLTITQEGNKFTVKESSNFRNIDVVFELGVDFAYSAADGTELTGTWTMEGNKLVGKFKRVDNGKEQIAVREISGNELIQTYTYEGVEAKRIFKKE",–,0.60,0.30,0.71,0.66,0.62
"38Q1, 72A (protein, listed as Rattus norvegicus, PEPTIDE (1)...(131) wild-type rat intestinal fatty acid binding protein) AFDGTWKVDRNENYEKFMEKMGINVVKRKLGAHDNLKQTITQEGNKFTVKESSNFRNIDVVFELGVDFAYSAADGTELTGTWTMEGNKLVGKFKRVDNGKELIAVREISGNELIQTYTYEGVEAKRIFKKE",1.87,1.75,1.30,1.87,1.90,–
"38V2, 72A (protein, listed as Rattus norvegicus, PEPTIDE (1)...(131) wild-type rat intestinal fatty acid binding protein) AFDGTWKVDRNENYEKFMEKMGINVVKRKLGAHDNLKVTITQEGNKFTVKESSNFRNIDVVFELGVDFAYSAADGTELTGTWTMEGNKLVGKFKRVDNGKELIAVREISGNELIQTYTYEGVEAKRIFKKE",1.65,1.75,1.50,1.67,1.70,–
"38K1, 72A (protein, listed as Rattus norvegicus, PEPTIDE (1)...(131) wild-type rat intestinal fatty acid binding protein) AFDGTWKVDRNENYEKFMEKMGINVVKRKLGAHDNLKKTITQEGNKFTVKESSNFRNIDVVFELGVDFAYSAADGTELTGTWTMEGNKLVGKFKRVDNGKELIAVREISGNELIQTYTYEGVEAKRIFKKE",0.83,0.76,0.48,0.86,0.90,–
"40Y3, L72A (protein, listed as Rattus norvegicus, PEPTIDE (1)...(131) wild-type rat intestinal fatty acid binding protein) AFDGTWKVDRNENYEKFMEKMGINVVKRKLGAHDNLKLTYTQEGNKFTVKESSNFRNIDVVFELGVDFAYSAADGTELTGTWTMEGNKLVGKFKRVDNGKELIAVREISGNELIQTYTYEGVEAKRIFKKE",0.89,0.48,0.29,0.49,0.50,–
